Test results from the supplement of paper PMC5998384.

Experiments:
[1] = test system: HeLa Kyoto; assay: solubility change mitosis vs G1/S (difference of NP-40 vs SDS log2 ratios) (log2 ratio difference); higher = more soluble in mitosis
[2] = test system: HeLa Kyoto; assay: solubility in G1/S (NP-40 vs SDS abundance) (log2 ratio); higher = more soluble; details: cell cycle stage: G1/S
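For solubility change mitosis vs G1/S (difference of NP-40 vs SDS log2 ratios) in this document: synchronized HeLa Kyoto cells (double thymidine block for G1/S, nocodazole release for mitosis), protein amounts in NP-40 versus SDS lysates quantified by mass spectrometry, three biological replicates.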
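For solubility in G1/S (NP-40 vs SDS abundance) in this document: HeLa Kyoto cells arrested at G1/S by double thymidine block, proteins quantified by TMT10plex mass spectrometry in mild NP-40 versus SDS extracts, three biological replicates.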

Row | Substance | solubility change mitosis (log2) [1] | solubility in G1/S (log2) [2]
1 | MSFAESGWRSALRRRGPGTPGPVARPSYSSFTQGDSWGEGEVDEEEGCDQVARDLRAEFSAGAWSEPRKRSVLPPDGNGSPVLPDKRNGIFPAAAGSRAQPRRWPVQVLSILCSLLFAILLAFLLAIAYLIVKELHAENLKNEDDVDTGLLGFWTLLIISLTAGFSCCSFSWTVTYFDSFEPGMFPPTPLSPARFKKLTGHSFHMGYSMAILNGIVAALTVAWCLM [ARL6IP6] | 0.698 | -0.241
2 | MLWLALGPFPAMENQVLVIRIKIPNSGAVDWTVHSGPQLLFRDVLDVIGQVLPEATTTAFEYEDEDGDRITVRSDEEMKAMLSYYYSTVMEQQVNGQLIEPLQIFPRACKPPGERNIHGLKVNTRAGPSQHSSPAVSDSLPSNSLKKSSAELKKILANGQMNEQDIRYRDTLGHGNGGTVYKAYHVPSGKILAVKVILLDITLELQKQIMSELEILYKCDSSYIIGFYGAFFVENRISICTEFMDGGSLDVYRKMPEHVLGRIAVAVVKGLTYLWSLKILHRDVKPSNMLVNTRGQVKLCDFGVSTQLVNSIAKTYVGTNAYMAPERISGEQYGIHSDVWSLGISFMELALGRFPYPQIQKNQGSLMPLQLLQCIVDEDSPVLPVGEFSEPFVHFITQCMRKQPKERPAPEELMGHPFIVQFNDGNAAVVSMWVCRALEERRSQQGPP [MAP2K5] | -0.109 | 0.128
3 | MVVSKMNKDAQMRAAINQKLIETGERERLKELLRAKLIECGWKDQLKAHCKEVIKEKGLEHVTVDDLVAEITPKGRALVPDSVKKELLQRIRTFLAQHASL [ENY2] | 0.636 | -0.203
4 | MEFLLGNPFSTPVGQCLEKATDGSLQSEDWTLNMEICDIINETEEGPKDAIRALKKRLNGNRNYREVMLALTVLETCVKNCGHRFHILVANRDFIDSVLVKIISPKNNPPTIVQDKVLALIQAWADAFRSSPDLTGVVHIYEELKRKGVEFPMADLDALSPIHTPQRSVPEVDPAATMPRSQSQQRTSAGSYSSPPPAPYSAPQAPALSVTGPITANSEQIARLRSELDVVRGNTKVMSEMLTEMVPGQEDSSDLELLQELNRTCRAMQQRIVELISRVSNEEVTEELLHVNDDLNNVFLRYERFERYRSGRSVQNASNGVLNEVTEDNLIDLGPGSPAVVSPMVGNTAPPSSLSSQLAGLDLGTESVSGTLSSLQQCNPRDGFDMFAQTRGNSLAEQRKTVTYEDPQAVGGLASALDNRKQSSEGIPVAQPSVMDDIEVWLRTDLKGDDLEEGVTSEEFDKFLEERAKAAEMVPDLPSPPMEAPAPASNPSGRKKPERSEDALFAL [TOM1L2] | -0.0085 | 0.292
5 | MTSPSPRIQIISTDSAVASPQRIQIVTDQQTGQKIQIVTAVDASGSPKQQFILTSPDGAGTGKVILASPETSSAKQLIFTTSDNLVPGRIQIVTDSASVERLLGKTDVQRPQVVEYCVVCGDKASGRHYGAVSCEGCKGFFKRSVRKNLTYSCRSNQDCIINKHHRNRCQFCRLKKCLEMGMKMESVQSERKPFDVQREKPSNCAASTEKIYIRKDLRSPLIATPTFVADKDGARQTGLLDPGMLVNIQQPLIREDGTVLLATDSKAETSQGALGTLANVVTSLANLSESLNNGDTSEIQPEDQSASEITRAFDTLAKALNTTDSSSSPSLADGIDTSGGGSIHVISRDQSTPIIEVEGPLLSDTHVTFKLTMPSPMPEYLNVHYICESASRLLFLSMHWARSIPAFQALGQDCNTSLVRACWNELFTLGLAQCAQVMSLSTILAAIVNHLQNSIQEDKLSGDRIKQVMEHIWKLQEFCNSMAKLDIDGYEYAYLKAIVLFSPDHPGLTSTSQIEKFQEKAQMELQDYVQKTYSEDTYRLARILVRLPALRLMSSNITEELFFTGLIGNVSIDSIIPYILKMETAEYNGQITGASL [NR2C2] | 0.0297 | -0.109
6 | MATAPGPAGIAMGSVGSLLERQDFSPEELRAALAGSRGSRQPDGLLRKGLGQREFLSYLHLPKKDSKSTKNTKRAPRNEPADYATLYYREHSRAGDFSKTSLPERGRFDKCRIRPSVFKPTAGNGKGFLSMQSLASHKGQKLWRSNGSLHTLACHPPLSPGPRASQARAQLLHALSLDEGGPEPEPSLSDSSSGGSFGRSPGTGPSPFSSSLGHLNHLGGSLDRASQGPKEAGPPAVLSCLPEPPPPYEFSCSSAEEMGAVLPETCEELKRGLGDEDGSNPFTQVLEERQRLWLAELKRLYVERLHEVTQKAERSERNLQLQLFMAQQEQRRLRKELRAQQGLAPEPRAPGTLPEADPSARPEEEARWEVCQKTAEISLLKQQLREAQAELAQKLAEIFSLKTQLRGSRAQAQAQDAELVRLREAVRSLQEQAPREEAPGSCETDDCKSRGLLGEAGGSEARDSAEQLRAELLQERLRGQEQALRFEQERRTWQEEKERVLRYQREIQGGYMDMYRRNQALEQELRALREPPTPWSPRLESSKI [N4BP3] | 0.334 | 0.203
7 | MPGRHVSRVRALYKRVLQLHRVLPPDLKSLGDQYVKDEFRRHKTVGSDEAQRFLQEWEVYATALLQQANENRQNSTGKACFGTFLPEEKLNDFRDEQIGQLQELMQEATKPNRQFSISESMKPKF [SDHAF3] | 0.134 | 0.106
8 | MRVDSSADPTMSQEQGPGSSTPPSSPTLLDALLQNLYDFGGTEGETEQKKIIKKRENKKRDVMASAALAAEPSPLPGSLIRGQRKSASSFFKELREERHCAPSGTPTGPEILAAAVPPSSLKNNREQVEVVEFHSNKKRKLTPDHNKNTKQANPSVLERDVDTQEFNLEKARLEVHRFGITGYGKGKERILEQERAIMLGAKPPKKSYVNYKVLQEQIKEKKAAKEEEKRLAQETDIFKKKKRKGQEDRKSKKKSAPSILSNGRIGQVGKFKNGTLILSPVDIKKINSSRVAK [C1ORF131] | 0.969 | -1.24
9 | MDHTDNELQGTNSSGSLGGLDVRRRIPIKLISKQANKAKPAPRTQRTINRMPAKAPPGDEEGFDYNEEERYDCKGGELFANQRRFPGHLFWDFQINILGEKDDTPVHFCDKCGLPIKIYGRMIPCKHVFCYDCAILHEKKGDKMCPGCSDPVQRIEQCTRGSLFMCSIVQGCKRTYLSQRDLQAHINHRHMRAGKPVTRASLENVHPPIAPPPTEIPERFIMPPDKHHMSHIPPKQHIMMPPPPLQHVPHEHYNQPHEDIRAPPAELSMAPPPPRSVSQETFRISTRKHSNLITVPIQDDSNSGAREPPPPAPAPAHHHPEYQGQPVVSHPHHIMPPQQHYAPPPPPPPPISHPMPHPPQAAGTPHLVYSQAPPPPMTSAPPPITPPPGHIIAQMPPYMNHPPPGPPPPQHGGPPVTAPPPHHYNPNSLPQFTEDQGTLSPPFTQPGGMSPGIWPAPRGPPPPPRLQGPPSQTPLPGPHHPDQTRYRPYYQ [CBLL1] | -0.286 | 0.175
10 | MAKAGDKSSSSGKKSLKRKAAAEELQEAAGAGDGATENGVQPPKAAAFPPGFSISEIKNKQRRHLMFTRWKQQQRKEKLAAKKKLKKEREALGDKAPPKPVPKTIDNQRVYDETTVDPNDEEVAYDEATDEFASYFNKQTSPKILITTSDRPHGRTVRLCEQLSTVIPNSHVYYRRGLALKKIIPQCIARDFTDLIVINEDRKTPNGLILSHLPNGPTAHFKMSSVRLRKEIKRRGKDPTEHIPEIILNNFTTRLGHSIGRMFASLFPHNPQFIGRQVATFHNQRDYIFFRFHRYIFRSEKKVGIQELGPRFTLKLRSLQKGTFDSKYGEYEWVHKPREMDTSRRKFHL [RPF1] | 0.774 | -1.77
11 | NES | 0.912 | -1.35
12 | MLQKPRNRGRSGGQAERDRDWSHSGNPGASRAGEDARVLRDGFAEEAPSTSRGPGGSQGSQGPSPQGARRAQAAPAVGPRSQKQLELKVSELVQFLLIKDQKKIPIKRADILKHVIGDYKDIFPDLFKRAAERLQYVFGYKLVELEPKSNTYILINTLEPVEEDAEMRGDQGTPTTGLLMIVLGLIFMKGNTIKETEAWDFLRRLGVYPTKKHLIFGDPKKLITEDFVRQRYLEYRRIPHTDPVDYEFQWGPRTNLETSKMKVLKFVAKVHNQDPKDWPAQYCEALADEENRARPQPSGPAPSS [NDNL2] | 0.116 | 0.289
13 | MAAGAGAGSAPRWLRALSEPLSAAQLRRLEEHRYSAAGVSLLEPPLQLYWTWLLQWIPLWMAPNSITLLGLAVNVVTTLVLISYCPTATEEAPYWTYLLCALGLFIYQSLDAIDGKQARRTNSCSPLGELFDHGCDSLSTVFMAVGASIAARLGTYPDWFFFCSFIGMFVFYCAHWQTYVSGMLRFGKVDVTEIQIALVIVFVLSAFGGATMWDYTIPILEIKLKILPVLGFLGGVIFSCSNYFHVILHGGVGKNGSTIAGTSVLSPGLHIGLIIILAIMIYKKSATDVFEKHPCLYILMFGCVFAKVSQKLVVAHMTKSELYLQDTVFLGPGLLFLDQYFNNFIDEYVVLWMAMVISSFDMVIYFSALCLQISRHLHLNIFKTACHQAPEQVQVLSSKSHQNNMD [CHPT1] | -0.173 | -0.277
14 | MDSSSSSSAAGLGAVDPQLQHFIEVETQKQRFQQLVHQMTELCWEKCMDKPGPKLDSRAEACFVNCVERFIDTSQFILNRLEQTQKSKPVFSESLSD [TIMM8A] | 0.392 | -0.653
15 | MPAIAVLAAAAAAWCFLQVESRHLDALAGGAGPNHGNFLDNDQWLSTVSQYDRDKYWNRFRDDDYFRNWNPNKPFDQALDPSKDPCLKVKCSPHKVCVTQDYQTALCVSRKHLLPRQKKGNVAQKHWVGPSNLVKCKPCPVAQSAMVCGSDGHSYTSKCKLEFHACSTGKSLATLCDGPCPCLPEPEPPKHKAERSACTDKELRNLASRLKDWFGALHEDANRVIKPTSSNTAQGRFDTSILPICKDSLGWMFNKLDMNYDLLLDPSEINAIYLDKYEPCIKPLFNSCDSFKDGKLSNNEWCYCFQKPGGLPCQNEMNRIQKLSKGKSLLGAFIPRCNEEGYYKATQCHGSTGQCWCVDKYGNELAGSRKQGAVSCEEEQETSGDFGSGGSVVLLDDLEYERELGPKDKEGKLRVHTRAVTEDDEDEDDDKEDEVGYIW [SPOCK1] | 0.345 | -0.59
16 | SZT2 | 0.317 | -0.476
17 | MKRHRPVSSSDSSDESPSTSFTSGSMYRIKSKIPNEHKKPAEVFRKDLISAMKLPDSHHINPDSYYLFADTWKEEWEKGVQVPASPDTVPQPSLRIIAEKVKDVLFIRPRKYIHCSSPDTTEPGYINIMELAASVCRYDLDDMDIFWLQELNEDLAEMGCGPVDENLMEKTVEVLERHCHENMNHAIETEEGLGIEYDEDVICDVCRSPDSEEGNDMVFCDKCNVCVHQACYGILKVPEGSWLCRSCVLGIYPQCVLCPKKGGALKTTKTGTKWAHVSCALWIPEVSIACPERMEPITKISHIPPSRWALVCNLCKLKTGACIQCSIKSCITAFHVTCAFEHGLEMKTILDEGDEVKFKSYCLKHSQNRQKLGEAEYPHHRAKEQSQAKSEKTSLRAQKLRELEEEFYSLVRVEDVAAELGMPTLAVDFIYNYWKLKRKSNFNKPLFPPKEDEENGLVQPKEESIHTRMRMFMHLRQDLERVRNLCYMISRREKLKLSHNKIQEQIFGLQVQLLNQEIDAGLPLTNALENSLFYPPPRITLKLKMPKSTPEDHRNSSTETDQQPHSPDSSSSVHSIRNMQVPQESLEMRTKSYPRYPLESKNNRLLASLSHSRSEAKESSPAWRTPSSECYHGQSLGKPLVLQAALHGQSSIGNGKSQPNSKFAKSNGLEGSWSGNVTQKDSSSEMFCDQEPVFSPHLVSQGSFRKSTVEHFSRSFKETTNRWVKNTEDLQCYVKPTKNMSPKEQFWGRQVLRRSAGRAPYQENDGYCPDLELSDSEAESDGNKEKVRVRKDSSDRENPPHDSRRDCHGKSKTHPLSHSSMQR [JADE3] | 0.383 | -0.949
